Assay results published in the DeepSol protein solubility set.

test: soluble on expression in E. coli; label from the status in PepcDB or PDB records

Sequence	soluble on expression in E. coli
MEGRLTVVPTPIGNLEDITLRALKVLREADLILAEDTRTSSVLLHHYDIHCPLQSHHKFNEHRTAKSLAERISGGERIALISDAGTPGISDPGFLLVRACAELGVVVECLPGPTALIPALVASGLPADRFVFEGFLPVKKGRQTRMKELAEELRTMIFYESPHRVLRTLTQFVETFGLDRPAAACRELSKLHEEVIRGTLAELLAHFENHPPRGEFVLIVGGAAPKGRKEEKQ	not soluble
MPKLTIEGAGTFDVKEGTKLVLAIEDSGVNILHRCGGNARCTTCRVEILAGDFCEASANEKHAMTEKGIEDHLRLSCQMRVHKDIVVRPVLTVENSGLDAGPRPAE	not soluble
MAMMAKHQAVKKIFDQIATKYDLIDTIISLGLDQHWRRVLVSSLGLREGMRCLDCGAGSGKVTELIYFRCGGCDVTALDITDSMFNPELKKYVKFVVSPAESLPFPDASFDRVSSAFLTRNLADIDRYFAEVYRVLRPGGVFVNMDIYNPTRPVISEFFSLYFYRFVPFFGNRATGSKNYTYLANTVKYFHRPSVISQKLADRGFSVEATDLFFGAVYLHRSVKPEGRGLEHHHHHH	not soluble
SLAPPAPPVSYGVEEDVFHPVRAKQGMVASVDATATQVGVDILKEGGNAVDAAVAVGYALAVTHPQAGNLGGGGFMLIRSKNGNTTAIDFREMAPAKATRDMFLDDQGNPDSKKSLTSHLASGTPGTVAGFSLALDKYGTMPLNKVVQPAFKLARDGFIVNDALADDLKTYGSEVLPNHENSKAIFWKEGEPLKKGDTLVQANLAKSLEMIAENGPDEFYKGTIAEQIAQEMQKNGGLITKEDLAAYKAVERTPISGDYRGYQVYSMPPPSSGGIHIVQILNILENFDMKKYGFGSADAMQIMAEAEKYAYADRSEYLGDPDFVKVPWQALTNKAYAKSIADQIDINKAKPSSEIRPGKLAPYESNQTTHYSVVDKDGNAVAVTYTLNTTFGTGIVAGESGILLNNQMDDFSAKPGVPNVYGLVGGDANAVGPNKRPLSSMSPTIVVKDGKTWLVTGSPGGSRIITTVLQMVVNSIDYGLNVAEATNAPRFHHQWLPDELRVEKGFSPDTLKLLEAKGQKVALKEAMGSTQSIMVGPDGELYGASDPRSVDDLTAGY	soluble
MADQYHEPVSELTGKDRDFVRALNSLKEEIEAVAWYHQRVVTTKDETVRKILEHNRDEEMEHAAMLLEWLRRNMPGWDEALRTYLFTDKPITEIEEETSGGSENTGGDLGIRKL	soluble
MADLSSRVNELHDLLNQYSYEYYVEDNPSVPDSEYDKLLHELIKIEEEHPEYKTVDSPTVRVGGEAQASFNKVNHDTPMLSLGNAFNEDDLRKFDQRIREQIGNVEYMCELKIDGLAVSLKYVDGYFVQGLTRGDGTTGEDITENLKTIHAIPLKMKEPLNVEVRGEAYMPRRSFLRLNEEKEKNDEQLFANPRNAAAGSLRQLDSKLTAKRKLSVFIYSVNDFTDFNARSQSEALDELDKLGFTTNKNRARVNNIDGVLEYIEKWTSQRESLPYDIDGIVIKVNDLDQQDEMGFTQKSPRWAIAYKFPAEEHHHHHH	soluble
MSFDAKSLQQVREQVAARLRLDAGRPWLMVHAGSGGSANNLSIEQYARLIIKLNQACPELQCILTAGPGEERIAEQLAAELLAHGGNGWIYRSDEGLPKFCQVMANAALFVAGSTGPLHIAAALDVPTIGFFPAHRSATPLRWRPLNSEGRHLAFSPPEDSDHPEDMSQLDPKTMAAAIARWAPPFWRTEHLEHHHHHH	soluble
MGHHHHHHSHKVENFEAAVHFYGKAIELNPANAVYFCNRAAAYSKLGNYAGAVQDCERAICIDPAYSKAYGRMGLALSSLNKHVEAVAYYKKALELDPDNETYKSNLKIAELKLREAPSPTGGVGSFDIAGLLNNPGFMSMASNLMNNPQIQQLMSGMISGGNNPLGTPGTSPSQNDLASLIQAGQQFAQQMQQQNPELIEQLRSQIRSRTP	not soluble
MSLENVDPFDIIRQFRSVIAKTSLQASSNIEGLDTVWNSDLVLEANFWHLVEILLSFRTSQEFLDKESSISSKPYNSSIIFEKELLQKDKNLYQIWLIIVWIEGNFPFVEKPSNIPSSKWTNTLVTSGLMSSDLDYPLRDCSVVINDKDKADDHVFYKYVYELLLCGNYDQIFEECKLSDNITLNMIMCGMQEYVDPSIDVQLKDEFEVQQGVKKHSLWRRAVYSLSQNDKLDKYERAIYSYLAGDIPNDEVLQTLNWDSELLVYLNQILKIEVENYLLQNGKVNNEGHHHHHH	soluble
MGSDKIHHHHHHMWFSLTYAIIMHSLTTTRKMLQRLDVYLTSFEWGNFSKSKLSILQAFLKIATKDGYDAVSMRSLAKAVDLKPPTMYSHFPAGKDQIVSSAFRWHYYSFAMAVKEGLSQSETLEEYWSALIRVHIIQQIKHPENDLFDMLMATDRLGSILPTDLRSEMIEWLSFCDFMYESIATDLGIDDAKQKSKIIRVTLDGANSWWKWDDSQENLEECIRYAERIAAGILKI	not soluble
SEKEKGNDDGIPDQENSLDFSEHFNQLELLETHGHLIPTGTQSLWVGNSDEDEEQDDKNEEWYRLQEKKMEKDPSRLLLWAAEKNRLTTVRRLLSEKATHVNTRDEDEYTPLHRAAYSGHLDIVQELIAQGADVHAVTVDGWTPLHSACKWNNTRVASFLLQHDADINAQTKGLLTPLHLAAGNRDSKDTLELLLMNRYVKPGLKNNLEETAFDIARRTSIYHYLFEIVEGCTNSSPQS	soluble
MTIKTTMGILAGKASHFVLSKLGRGSTLPGKIALKFDKDILDTLAKDYEIVVVTGTNGKTLTTALTVGILKEAYGEIVTNPSGANMITGITSTFLTAKRAKSGKKIAVLEIDEASLPKITEYITPSLFVFTNIFRDQMDRYGEIYTTYQMILDGAAKAPAATILANGDSPLFNSKELVNPVRFYGFDTEKHAPELTHYNTEGIVCPKCESILQYHLNTYANLGDYVCLNCDFHRPELDYKLTQLTKITNTTSEFIIDGQDYKINVGGLYNIYNALAAVSVAEFFGVVPEQIKAGFDKSRAIFGRQETFKIGDKSCTLVLIKNPVGASQALDMIKLADYPFSLSVLLNANYADGIDTSWIWDANFESILDMDIPEINAGGVRHSEIARRLRVTGYPEDKITQAEKLEDIMTLIEKQDCDHAYILATYTAMLEFRDILAQRHAVGKGMN	not soluble
MLTKGWDTISIVRQDSVNSDLAASWNSLDHEFSYTSDEGYACHGVFDCWSVINGGGGRLLRLRMPIRSGFFEASGTSRSLAGAVAIIEVTLSLLPQGNGQVQLKSAFLHKAGATQPLQGDEGGWLRGITLQDPDGSLGPFASVVLDCICNYLVEHPLQFTHTFATINFSKATAPEWARPRKCTYAYLDSGFLAIMAVCTERDISGLPLDIDVSGISQGGQSSYVLSPRMVLEHLVLPGLLQLYQGATAQDYRLDNTQMVNIPTLRMKAIKSGAIWYTPVVFAGCNPARMLGDFITVDYKGDCDLHAGIDMKWNGWLRMKLVLDGNTINFVKQSSDFRKEVHIPWYLAWLSPIVSLITHIVAAVISDDLISAIAARGGSVKADTIDCVSWSNDTHTASSSYLAEALVINYV	soluble
MGSDKIHHHHHHMSKPTQYGIIGCGMMGQEHLRNIALLPDARVAAIFEPNALMQAEAAKFAPDAQFVDSVEALLAIAELDCIMIASPNFRHVEQLETLASQNPLPVLVEKPLFTTLDDLNRIEEFAAHYPAPVWVAMEYRYMPPITAFLNEADTATGGIKMLTVREHRFPFLSKVDDWNRFNAQSGGTFVEKCCHFFDLMRLALKSEPVRIMASGGQDVNHLDERYDGSVPDILDNGYVIVEFESGARAMLELCMFAEGSKYQEDVSAVGPNGKVEAFVPGPGRFWPSHLGDAPVPKLVLSPRNPKGPEERDIPVDPTILDAGDHNGSTFYQHQKFLELVRGERSTPEVSLNDGKMAVLMGLAAQMSIAENRTVEISELL	not soluble
MGSDKIHHHHHHMYPRYSEINVKEALSDTPVVFVMGPRQAGKTTLVKSLIMDMGSENWTYITLDDQAQFEIAQADPVGFVRNLPSTRIALDEVQRLPELFVSIKQAVDEQRSPGRFLLTGSANALLLPRLSDSLAGRMESVRLMTLSECEIQGRQPSFLIKLLREEAPSTQDIRVRDHLLQRLVTGCFPEPLQRANERRRQAWYQQYTSTLIQRDIRDLTHIDHPDLMAKLLKLTAFYAGKLVNLTELGGKLGLDRLTIKKYMALLEQLFLVEQLPAWHSNEYKRLVKTPKLHPVDTGMMCAVRGLNQERLLKQPGDFGLVLESFVYNELRKQSVWIDEPLNFYHYRDKDKVEVDVVIENTMGDCFAIEIKAAATLNTKDFTGLKRFQSVAGDRFKIGVLLYDGDHTTAFGDNLYAVPVGALWS	not soluble
GPGSMRTSADIACLLAQYIKGQPEERLVTAAAYPDIFTPDVVEELNGAYALLLDAQRQAREACCAVDDVTREHGLPTALRITPKEQNELDVTEEMMIKRFAEEVAVYLSEGGAPNISSDAEPTSVLNSHCVDLRWHQHSTLVLHVLSYLPLEFTLSVAENVCKGWREWLFIPEFSGMFWHECTMREYPECVRMLLLSGGGDARQCDWRTFAMLCCSVDEEDISGEGTRSPDLVHS	not soluble
MFVEALKRQNPALISAALSLWQQGKIAPDSWVIDVDQILENGKRLIETARLYGIELYLMTKQFGRNPWLAEKLLALGYSGIVAVDYKEARVMRRAGLPVAHQGHLVQIPCHQVADAVEQGTDIITVFTLDKAREVSAAAVKAGRVQPVLLKVYSDDDFLYPGQESGFVQHSLHEVIAEIKKLPGLHLAGLTHFPCLLWDEAAGKVLPTPNLHTLVQARDQLAKSGIAIEQLNVPSATSCTSLPLLAEYGATHAEPGHALTGTIPANQQGDQPERIAMLWLSEISHHFRGDSYCYGGGYYRRGHAQHALVFTPENQKITETNLKTVDDSSIDYTLPLAGEYPVSSAVVLCFRTQIFVTRSDVVLVSGIQRGEPEIVGRYDSLGNPLEA	not soluble
MPENVTVIGAGLAGSEATWQLAKRGIHVDLYEMRPKKETPAHETGEFAELVCTNSMRSNQLSNAVGLLKEEMRHLDSLIMKAADMTQVPAGGALAVDRDSFSKYVTDTLKGMDNVTVHEEEIVKIPEDGITIIATGPLTSDALAKQIQAFSGTDSLHFFDAAAPIIAADSIDMDIVYKKSRYDRGEAAYLNCPMSKEQYEKFANELIKAETAQLHGFENSDVFEGCMPIEVMAARGAKTMLFGPLKPVGLEDPHTGETPYAVVQLRQDNAAASMYNIVGFQTHLKFGEQKRVFSMIPGLENARFVRYGKMHRNTYMASPNVLTASYEAKNRPGLFFAGQMTGVEGYVESAGSGLVAGINAAREALGKETVAFPKNTALGSMANYVTTTSAKHFQPMNASFALLPALEGKKIRKKRERHEKISERGLASLDAFKTEVLDLEHHHHHH	soluble
MNYRDLTLRERQVLGIIIQSYVVSAMPVGSRTIARNYNLGLSDATIRNVMADLEADGFISQPHTSAGRVPTDKGYRYYVDLIMNVSRIDEEEKRMIDDRFSNRNSELKGTSAEVLGTAARVLGSISRQLAVVLPPRLSNAVFERLDIVQLASSRIMVVIAIQSLFVKTIVMELNAEISRQKIDAVVDVLNERLPGLTLEEIRSTIAQRLSDFKGSEELMNSIVSSADTLFDESSILEQLYVSGTENIVDQPEFKQPEKVRDIITMIEDKFGMARLVDNAVPSALRQVSECEVAISIGTENRTGKAADLTIVSSPYFAGKMIGRVGVMGPKRMNYEHAVRVVNYMAGCLSEALSGNN	not soluble
MSLNALDPHDALPWIEETTALELSPSQRSAVTLVLASKVSIITGGPGVGKTTILKAILSVLQREKVSVALCAPTGRAAKRLTESTGIEAKTIHRLLEFDPQAFDFKRGRGNPLDASFVVVDETSMVDVVLMQKLVAAIPDHAAVVFVGDVDQLPSVGPGAVLADMISSEAIPTVRLTEIFRQAAESMIVVNAHRINQGDMPLTAEGEELSDFYVVKAASAEEIHDKVIQLVTERIPKRFGLDAVKDVQVLTPMNKGGVGVHALNAELQAKLNPASEPKVTRFGTTFAPGDKVIQTVNNYDKEVFNGDIGLIEAIDPEAEIATAFFFDHHRAEYDFNDLDELSLAYATSIHKSQGSEYPAVVIPLAMQHFTLLERNLIYTAVTRGRKLVVIVAEPKALTLAIKNCKSKRRLTGLVQRLRESGKQSWQNEGHHHHHH	soluble
